Experimental data from patent US7618977B2, “Method of treating dermatitis comprising administering a chymase inhibitor” (Asubio Pharma Co., Ltd., priority 2000, dated 2009).

How the values were obtained:
Human heart chymase = biological target: T1, Human heart chymase (Homo sapiens, UniProt P23946); experiment: Measurement of chymase inhibitory activity; format: biochemical; conditions: purified human heart chymase, substrate Suc-Ala-Ala-Pro-Phe-MCA, 30° C.
T1 construct: Human heart chymase was purified according to the method of Urata et al; from tissue; host or cells: human heart
T1 sequence (P23946 22-247): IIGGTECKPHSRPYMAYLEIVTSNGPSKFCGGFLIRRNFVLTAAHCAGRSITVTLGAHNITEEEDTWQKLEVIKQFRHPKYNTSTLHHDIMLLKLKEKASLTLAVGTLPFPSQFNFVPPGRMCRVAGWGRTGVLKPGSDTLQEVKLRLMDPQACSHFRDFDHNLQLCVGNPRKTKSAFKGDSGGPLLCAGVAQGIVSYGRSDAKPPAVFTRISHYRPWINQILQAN
Procedure: Human heart chymase was purified according to the method of Urata et al. (J. Biol. Chem., 1990, 265, 22348). The inhibitory activity of the quinazoline derivatives of the present invention with respect to chymase was measured in the following manner. That is, the purified enzyme solution was diluted to a suitable concentration with 0.1M tris-hydrochloride buffer (pH=7.5), 1M sodium chloride, and 0.01% TritonX-100 to obtain an enzyme solution. A 10 mM dimethyl sulfoxide (hereinafter referred to as DMSO) solution of Suc-Ala-Ala-Pro-Phe-MCA (Peptide Institute) was diluted 20-fold at the time of use by 0.1M tris-hydrochlorate, 1M sodium chloride, and 0.01% TritonX-100 to obtain the substrate solution.
75 μl of the enzyme solution warmed to 30° C. was mixed with 5 μl of DMSO solution of the test sample. The mixture was preincubated at 30° C. for 10 minutes. Next, 20 μl of a substrate solution warmed to 30° C. was mixed with the test sample-enzyme mixture and incubated at 30° C. After 10 minutes, 50 μl of 30% acetic acid was added to stop the enzymatic reaction. The amount of the AMC produced was quantified using a fluorescent photometer. At the same time, a blind test was carried out by adding, instead of the test sample solution, 5 μl of DMSO and performing the same reaction. […]

[1] = system: human polymorphonuclear leukocytes (PMN); experiment: Human chymase-induced migration of polymorphonuclear leukocytes, 48-well chemotaxis chamber; format: cell-based
Procedure: In Example 6, it was shown that a remarkable infiltration of leukocytes is observed in late-phase reaction of human chymase-induced dermatitis. The effect of human chymase on the migration of polymorphonuclear leukocytes (PMN) in vitro was investigated for the purpose of investigating the mechanism of chymase-induced leukocyte infiltration. PMN was isolated by adding a ⅕th volume of 6% dextran solution to heparinized whole blood from normal healthy subject and allowing it to stand at 37° C. for 1 hour, then layering the supernatent on Ficoll-Paque (Amersham Pharmacia Biotech) and centrifuging it. Further, the migration of PMN was measured by using a 48-well chemotaxis chamber (NeuroProbe Co.) by the textbook method (Seibutsu Yakkagaku Jikken Koza (Biopharmacology Experiment Lectures) 12, 315, Hirokawa Shoten). That is, a medium containing human chymase (200 to 800 nM) or fMLP (N-formyl-L-methionyl-L-leucyl-L-phenylalanine, Sigma-Aldrich Co.) (10 nM) was placed in the lower well of the chamber. The upper well and the lower well were separated by a polycarbonate filter (pore size 5 μm) (NeuroProbe Co.) PMN (1×10^6/ml) was added to the upper well and cultured at 37° C. for 1 hour, then the filter was fixed, stained and the number of cells in the membrane were counted under a microscope (400×) (Seibutsu Yakkagaku Jikken Koza (Biopharmacology Experiment Lectures) 12, 315). For the cell staining, a hemacolor solution (Merck) was used. In this test, when investigating the effect of the chymase inhibitor, a chymase inhibitor (Compound 18 or Compound 34) was dissolved in dimethyl sulfoxide and added to the lower well of the chamber just before the addition of the human chymase. The concentration of the compound was adjusted so that the final concentration of the dimethyl sulfoxide became 1%.

eosinophils of the skin = experiment: Administration of human chymase to mouse ears, number of eosinophils of skin; format: in vivo, mice; conditions: p<0.01
Procedure: The effect of a chymase inhibitor on the infiltration of eosinophils of the skin in the test of Example 10 was studied. That is, 48 hours after the sixth application of hapten, the ears of the mice were fixed with formalin and paraffin sections prepared in accordance with an ordinary method. The sections were stained with Fast Green (Fluka), known to specifically stain eosinophils (Current Protocol in Immunology, Wiley Interscience). That is, the deparaffined sections were fixed with 100% methanol for 1 minute, then stained for 30 minutes by 0.2% Fast Green dissolved in 70% ethanol. The eosinophils were measured by randomly selecting 10 fields (×400) under a microscope and counting the number of cells per area using an ocular grid. As the chymase inhibitor, the Compound 18 and Compound 34 were used and =administered by the method described in Example 10. […] The thickness of the ear was measured by a micrometer (Digimatic Indicator, Mitsutoyo Co.) immediately before each administration of chymase and 1 hour, 6 hours, 24 hours, and 48 hours after the administration to find the increase from the ear thickness before the first administration of chymase. […] The number of eosinophils of the skin was measured by the method described in Example 11. […]

| Molecule | IC50 (Human heart chymase) | migration-promoting activity relative to fMLP ([1]; 200 to 400 nM chymase equals 10 nM fMLP) | concentration at which promotion of human PMN migration is statistically significant ([1]; chymase 200 to 800 nM in lower well, p<0.05 Dunnett's test) | increase in number of eosinophils compared with ear administered saline (eosinophils of the skin; 24 hours after single intradermal administration of 2.0 μg) | increase in number of eosinophils compared with group administered saline (eosinophils of the skin; administered at 1 week intervals four times in total, 1 week after administration) |
| --- | --- | --- | --- | --- | --- |
| CC(C(=O)O)C(=O)Nc1cccc(S(=O)(=O)n2c(=O)[nH]c3cc(Cl)ccc3c2=O)c1 (centres unmarked) [Compound 13, 2-{3-[(7-chloro-2,4(1H, 3H) -quinazolinedion-3-yl)sulfonyl]phenylaminocarbonyl}propionic Acid] | 300 nM | – | – | – | – |
| human chymase: recombinant human mature chymase expressed in CHO dhfr- cells, purified; serine protease of mast cells (protein, UniProt P23946 22-247, looked up) Chymase: IIGGTECKPHSRPYMAYLEIVTSNGPSKFCGGFLIRRNFVLTAAHCAGRSITVTLGAHNITEEEDTWQKLEVIKQFRHPKYNTSTLHHDIMLLKLKEKASLTLAVGTLPFPSQFNFVPPGRMCRVAGWGRTGVLKPGSDTLQEVKLRLMDPQACSHFRDFDHNLQLCVGNPRKTKSAFKGDSGGPLLCAGVAQGIVSYGRSDAKPPAVFTRISHYRPWINQILQAN | – | about 1/30 | ≥ 400 nM | approximately 7.6 fold | about 21 fold |
